We go through four molecules from PMC11914429, “Reprograming of the ubiquitin ligase Ubr1 by intrinsically disordered Roq1 through cooperating multifunctional motifs” (The EMBO Journal, 2025).

The target of test [1] is T1, FLAG-Ubr1 (S. cerevisiae, UniProt P19812 1-1950).
T1 construct: ubiquitin ligase Ubr1 of yeast; single subunit of about 200 kDa, nearly 2000 residues; The purified protein comes from a strain with ubr1::nat-PGPD-FLAG-UBR1, so probably the whole protein; source: protease-deficient yeast expressing FLAG-Ubr1 (SSY2908), purified (anti-FLAG agarose, eluted with FLAG peptide); roq1 knockout yeast expressing FLAG-Ubr1, in lysate; not shown: FLAG, N-terminal, kept
Description: BLI; biotinylated Rad6 immobilised on streptavidin biosensors, 100 nM soluble Ubr1, without or with 200 nM or 1 µM Roq1(22-104); essentially irreversible, only association analysed. As to conditions: both partners purified. Background: BLI is a label-free optical method that tracks binding on a fibre tip over time.

Test [2] concerns the target T2, FLAG-Ubr1, P19812.
T2 chain: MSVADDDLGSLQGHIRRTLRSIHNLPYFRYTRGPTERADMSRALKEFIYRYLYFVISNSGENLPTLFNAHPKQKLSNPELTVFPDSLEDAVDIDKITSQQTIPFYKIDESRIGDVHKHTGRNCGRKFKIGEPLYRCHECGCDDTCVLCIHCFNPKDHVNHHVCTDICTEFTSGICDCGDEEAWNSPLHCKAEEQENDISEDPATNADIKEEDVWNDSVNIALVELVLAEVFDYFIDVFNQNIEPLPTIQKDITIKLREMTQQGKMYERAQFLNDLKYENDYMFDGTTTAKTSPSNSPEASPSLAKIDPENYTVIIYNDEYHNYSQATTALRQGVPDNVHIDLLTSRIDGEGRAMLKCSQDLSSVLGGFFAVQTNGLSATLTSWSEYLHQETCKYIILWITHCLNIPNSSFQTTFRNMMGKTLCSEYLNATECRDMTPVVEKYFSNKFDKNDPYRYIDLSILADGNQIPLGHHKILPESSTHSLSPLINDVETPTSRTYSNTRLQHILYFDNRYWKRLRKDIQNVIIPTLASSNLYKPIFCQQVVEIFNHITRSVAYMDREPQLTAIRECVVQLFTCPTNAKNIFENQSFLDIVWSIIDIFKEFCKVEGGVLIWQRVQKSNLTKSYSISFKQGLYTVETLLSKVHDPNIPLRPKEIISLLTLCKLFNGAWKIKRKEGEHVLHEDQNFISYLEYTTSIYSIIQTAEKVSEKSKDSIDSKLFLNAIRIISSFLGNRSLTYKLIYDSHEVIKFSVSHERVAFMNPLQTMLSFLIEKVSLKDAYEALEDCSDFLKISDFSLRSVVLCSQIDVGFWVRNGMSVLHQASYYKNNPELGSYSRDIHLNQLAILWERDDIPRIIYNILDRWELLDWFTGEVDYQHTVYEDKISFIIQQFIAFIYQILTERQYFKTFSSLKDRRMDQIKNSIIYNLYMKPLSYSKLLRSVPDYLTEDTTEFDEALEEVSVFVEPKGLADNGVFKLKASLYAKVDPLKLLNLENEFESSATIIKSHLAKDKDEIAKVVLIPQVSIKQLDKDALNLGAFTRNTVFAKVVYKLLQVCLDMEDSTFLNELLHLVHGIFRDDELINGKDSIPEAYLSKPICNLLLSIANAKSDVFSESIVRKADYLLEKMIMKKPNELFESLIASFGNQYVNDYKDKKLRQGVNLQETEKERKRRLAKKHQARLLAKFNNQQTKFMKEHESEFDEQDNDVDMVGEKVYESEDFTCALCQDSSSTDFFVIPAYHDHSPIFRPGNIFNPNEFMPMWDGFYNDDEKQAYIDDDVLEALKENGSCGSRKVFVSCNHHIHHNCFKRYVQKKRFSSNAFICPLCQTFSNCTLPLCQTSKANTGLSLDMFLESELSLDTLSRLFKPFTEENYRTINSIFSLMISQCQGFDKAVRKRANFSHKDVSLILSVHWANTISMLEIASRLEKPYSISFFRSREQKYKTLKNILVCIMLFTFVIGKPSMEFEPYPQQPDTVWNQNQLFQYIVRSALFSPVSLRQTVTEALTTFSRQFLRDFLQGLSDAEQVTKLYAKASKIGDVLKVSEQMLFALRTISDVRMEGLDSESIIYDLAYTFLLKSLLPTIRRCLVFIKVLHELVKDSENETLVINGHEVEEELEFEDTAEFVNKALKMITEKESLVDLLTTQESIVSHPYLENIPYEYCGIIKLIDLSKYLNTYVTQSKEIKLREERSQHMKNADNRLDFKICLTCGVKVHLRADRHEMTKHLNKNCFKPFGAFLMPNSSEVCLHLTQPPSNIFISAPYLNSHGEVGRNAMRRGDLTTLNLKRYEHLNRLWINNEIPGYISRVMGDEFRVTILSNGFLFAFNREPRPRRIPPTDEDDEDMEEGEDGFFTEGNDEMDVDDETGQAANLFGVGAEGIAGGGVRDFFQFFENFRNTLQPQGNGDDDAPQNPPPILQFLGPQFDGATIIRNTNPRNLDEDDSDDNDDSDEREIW
The test is described as follows: biolayer interferometry. The settings on record: chain shown with the change; 50 nM Ubr1, association step 5 min; value read at end of association (300 s); 50 mM HEPES, 150 mM NaCl, 10 mM MgCl2, 0.05% Tween-20, 0.02% BSA; parent: est. 4.5; read off a plot.

B1: Rad6 (enzyme, UniProt P06104 1-172, looked up)
chain: MSTPARRRLMRDFKRMKEDAPPGVSASPLPDNVMVWNAMIIGPADTPYEDGTFRLLLEFDEEYPNKPPHVKFLSEMFHPNVYANGEICLDILQNRWTPTYDVASILTSIQSLFNDPNPASPANVEAATLFKDHKSQYVKRVKETVEKSWEDDMDDMDDDDDDDDDDDDDEAD
modifications: biotin (amino-reactive NHS-PEG4-Biotin)
notes: ubiquitin-conjugating enzyme Rad6, not conjugated to ubiquitin; The plasmid pCA528-Rad6 was a gift (Axel Mogk); It is probably the yeast protein; also called unloaded Rad6; source: E. coli BL21(DE3), purified (His6-SUMO removed with Ulp1, SEC); not shown: His6-SUMO, N-terminal, cleaved
With B1, the binding result in test [1] was “binds”.

B2: Roq1(22-104) R22A; Y55A; Y56A; F57A; V58A (protein)
chain: ASQRDQTRVDSLVEESPMGDFGINNQPTQPGVIAAAAELTNLGIQENTSSNNNNNNNHGDDENGSRYGHGSSLGGDVHSRRCS
Regarding B2, the response in test [2] came out at 0 nm.

B3: Roq1(22-104) R22A (protein)
chain: ASQRDQTRVDSLVEESPMGDFGINNQPTQPGVIYYFVELTNLGIQENTSSNNNNNNNHGDDENGSRYGHGSSLGGDVHSRRCS
As for B3, in test [2], the response was found to be 0.5 nm.

B4: Roq1(22-104) Y55A; Y56A; F57A; V58A (protein)
chain: RSQRDQTRVDSLVEESPMGDFGINNQPTQPGVIAAAAELTNLGIQENTSSNNNNNNNHGDDENGSRYGHGSSLGGDVHSRRCS
With B4, the response in test [2] was 2 nm.
